Measured values as given in the supplement of paper PMC10126150.
± gives the standard deviation of the averaged measurements.

test system: ATP; assay: switch fluorescence ratio, 500 uM ATP over buffer (Cy3 cluster intensity, sum of 5 cycles each) (fold (ratio)); higher = stronger signal-on switching upon ATP binding; sequences stand for … in TCGTCGGCAGCGTCAGATGTGTATAAGAGACAGTTTTTTTTTTTTTTTTTTTTTTTTT…TC; conditions: aptamer strand: ATP DNA aptamer (quencher-CACCTGGGGGAGTATTGCGGAGGAAGG + anchor), 100 nM annealed; ATP concentration: 500 uM
How it was run: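 Clusters with intensities outside 100-1000 RFU were excluded. The remaining Cy3-labelled switching-strand clusters on a modified Illumina MiSeq flow-cell had been annealed to 100 nM quencher-labelled ATP aptamer and imaged in selection buffer, then after 15 min with 500 uM ATP at 22 °C, for five cycles separated by NaOH stripping and re-annealing. The fluorescence ratio, averaged per switch-domain sequence, is each cluster's summed target-cycle Cy3 intensity over its summed buffer-cycle Cy3 intensity.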
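Also: ATP exposure 15 min at 22 °C before imaging.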

| Sequence | switch fluorescence ratio |
| --- | --- |
| ATTTGGTGAG | 0.983 ± 0.03 |
| ATTTGGTGCG | 1.01 ± 0.036 |
| ATTTGGTGTA | 0.968 ± 0.0098 |
| ATTTGTAAGC | 0.9909 ± 0.0068 |
| ATTTGTATGC | 1 ± 0.051 |
| ATTTGTGGAC | 0.973 ± 0.037 |
| ATTTGTGGGG | 1.01 ± 0.065 |
| ATTTGTGGTG | 1.01 ± 0.023 |
| ATTTGTGTA | 0.992 ± 0.012 |
| ATTTGTGTGT | 0.967 ± 0.036 |
| ATTTGTGTTT | 0.9931 ± 0.0027 |
| ATTTTAATAT | 0.987 ± 0.03 |
| ATTTTACACC | 1.07 ± 0.013 |
| ATTTTACGTA | 1.143 ± 0.0025 |
| ATTTTACGTG | 1 ± 0.016 |
| ATTTTACTAA | 1.05 ± 0.021 |
| ATTTTAGGCA | 0.996 ± 0.039 |
| ATTTTAGGCC | 1.1 ± 0.06 |
| ATTTTAGTTA | 1 ± 0.038 |
| ATTTTATCAG | 1.02 ± 0.018 |
| ATTTTATTAC | 1.04 ± 0.028 |
| ATTTTCACAG | 1.03 ± 0.077 |
| ATTTTCAGAT | 1.003 ± 0.0045 |
| ATTTTCAGGG | 0.998 ± 0.067 |
| ATTTTCGGTG | 1.01 ± 0.024 |

| Sequence | switch fluorescence ratio |
| --- | --- |
| ATTTTGTAAT | 1 ± 0.019 |
| ATTTTGTGAG | 0.969 ± 0.031 |
| ATTTTGTGTA | 1.005 ± 0.004 |
| ATTTTGTGTG | 0.989 ± 0.011 |
| ATTTTGTTCT | 0.993 ± 0.031 |
| ATTTTGTTGG | 1.11 ± 0.2 |
| ATTTTTAGT | 1 ± 0.016 |
| ATTTTTATTC | 0.991 ± 0.03 |
| ATTTTTCCCG | 1.07 ± 0.059 |
| ATTTTTCGAT | 1 ± 0.026 |
| ATTTTTCTCG | 0.96 ± 0.041 |
| ATTTTTGGG | 1.03 ± 0.035 |
| ATTTTTGGTG | 1.06 ± 0.064 |
| ATTTTTTGGG | 0.9597 ± 0.0069 |
| ATTTTTTTCT | 1.04 ± 0.04 |
| ATTTTTTTGT | 1 ± 0.026 |
| CAAAAAAAAG | 1.03 ± 0.023 |
| CAAAAAATTA | 1.01 ± 0.031 |
| CAAAAAGCGT | 0.9786 ± 0.0056 |
| CAAAAAGTTG | 1.02 ± 0.093 |
| CAAAAATTGG | 1 ± 0.041 |
| CAAAAGAGTG | 0.999 ± 0.018 |
| CAAAAGCCTA | 0.974 ± 0.053 |
| CAAAAGGGGA | 0.984 ± 0.04 |
| CAAAAGTTGT | 0.992 ± 0.043 |

| Sequence | switch fluorescence ratio |
| --- | --- |
| CAAAATATAT | 1.06 ± 0.042 |
| CAAAATTGCA | 1.02 ± 0.016 |
| CAAAATTTGC | 0.9841 ± 0.0061 |
| CAAACGGGGG | 0.983 ± 0.042 |
| CAAACGGGGT | 1.01 ± 0.024 |
| CAAACTGGCA | 1.05 ± 0.045 |
| CAAAGACACA | 0.985 ± 0.012 |
| CAAAGGCGGA | 0.991 ± 0.014 |
| CAAAGGGGCA | 1.046 ± 0.0052 |
| CAAAGGGGGA | 1 ± 0.033 |
| CAAAGGGGGG | 1.13 ± 0.38 |
| CAAAGTAGGG | 0.991 ± 0.032 |
| CAAAGTGGTG | 0.97 ± 0.053 |
| CAAATAAATT | 0.989 ± 0.029 |
| CAAATCGTTG | 0.9786 ± 0.0024 |
| CAAATGAAAG | 1.004 ± 0.0058 |
| CAAATGATTT | 0.985 ± 0.021 |
| CAAATGTCAA | 0.987 ± 0.015 |
| CAAATGTTTG | 0.998 ± 0.02 |
| CAAATTAGGG | 0.971 ± 0.036 |
| CAAATTGCAG | 0.967 ± 0.026 |
| CAACACGGCA | 1.11 ± 0.026 |
| CAACCGCGTA | 2.36 ± 0.1 |
| CAACCGGGAA | 1.1 ± 0.021 |
| CAACCTGCGA | 1.4175 ± 0.0011 |

| Sequence | switch fluorescence ratio |
| --- | --- |
| CAACGCATTT | 2.36 ± 0.44 |
| CAACGGGCCA | 1.01 ± 0.029 |
| CAACGGGGGG | 0.998 ± 0.029 |
| CAACGTATTT | 1.113 ± 0.002 |
| CAACTAAGTT | 0.988 ± 0.036 |
| CAACTAGTGG | 0.978 ± 0.037 |
| CAACTTGGGA | 1.05 ± 0.015 |
| CAAGAACGTT | 0.997 ± 0.018 |
| CAAGAATGCG | 1 ± 0.034 |
| CAAGAATTTG | 0.9816 ± 0.0097 |
| CAAGAGGGTT | 0.99 ± 0.032 |
| CAAGAGTGTG | 0.98 ± 0.032 |
| CAAGATTCTT | 0.975 ± 0.056 |
| CAAGATTGCC | 1 ± 0.034 |
| CAAGCAAATT | 1.042 ± 0.0039 |
| CAAGCAGGCA | 0.9935 ± 0.0067 |
| CAAGCATCGC | 0.94962 ± 2.2e-05 |
| CAAGCGGGGG | 1.01 ± 0.05 |
| CAAGCTATCA | 1.026 ± 0.002 |
| CAAGGACATA | 1.07 ± 0.038 |
| CAAGGACGTT | 0.997 ± 0.02 |
| CAAGGACTGG | 0.997 ± 0.032 |
| CAAGGATTTT | 0.9929 ± 0.0012 |
| CAAGGCTACG | 1.06 ± 0.04 |
| CAAGGGAAGT | 0.978 ± 0.017 |

| Sequence | switch fluorescence ratio |
| --- | --- |
| CAAGGGATTT | 0.982 ± 0.036 |
| CAAGGGGCAG | 1.009 ± 0.0057 |
| CAAGGGGCGT | 1.01 ± 0.035 |
| CAAGGGGGCG | 0.994 ± 0.048 |
| CAAGGGGGGA | 1.01 ± 0.023 |
| CAAGGGGGTT | 1.02 ± 0.05 |
| CAAGGGTTGC | 0.987 ± 0.056 |
| CAAGGTATTG | 0.987 ± 0.017 |
| CAAGGTGGGG | 1.03 ± 0.0038 |
| CAAGGTGTGT | 1.01 ± 0.043 |
| CAAGGTTGAA | 0.9902 ± 0.0079 |
| CAAGTAATTG | 1.025 ± 0.0088 |
| CAAGTGAGGG | 1.04 ± 0.015 |
| CAAGTGCAGA | 1.052 ± 0.0078 |
| CAAGTTATAA | 0.994 ± 0.023 |
| CAAGTTGATG | 0.982 ± 0.057 |
| CAATAACTGG | 1.01 ± 0.015 |
| CAATACCTAT | 1.05 ± 0.022 |
| CAATACGGGG | 1.13 ± 0.085 |
| CAATACTACT | 1.361 ± 0.01 |
| CAATAGTTGG | 0.993 ± 0.01 |
| CAATATGCCG | 0.968 ± 0.026 |
| CAATATGTGT | 0.986 ± 0.036 |
| CAATATGTTG | 1.02 ± 0.035 |
| CAATATTACA | 1.05 ± 0.016 |

| Sequence | switch fluorescence ratio |
| --- | --- |
| CAATCATGTC | 1.04 ± 0.05 |
| CAATCCTATC | 1.02 ± 0.034 |
| CAATCGTAAA | 1.01 ± 0.02 |
| CAATGACACT | 1.04 ± 0.044 |
| CAATGAGAGA | 0.9792 ± 0.0083 |
| CAATGCAGCA | 0.976 ± 0.021 |
| CAATGCAGGG | 1.03 ± 0.014 |
| CAATGCGGAG | 1 ± 0.015 |
| CAATGGACGT | 0.99 ± 0.029 |
| CAATGGGATA | 1.02 ± 0.032 |
| CAATGGGGGT | 1 ± 0.038 |
| CAATGGGTAG | 0.9989 ± 0.0018 |
| CAATGTCACC | 1.06 ± 0.019 |
| CAATGTGGGT | 0.986 ± 0.0086 |
| CAATGTGTCG | 1.07 ± 0.055 |
| CAATGTGTCT | 1 ± 0.033 |
| CAATGTTAGA | 1 ± 0.014 |
| CAATGTTCGA | 0.981 ± 0.01 |
| CAATTACTTT | 1.06 ± 0.026 |
| CAATTATTCG | 1.04 ± 0.052 |
| CAATTCACCG | 1.04 ± 0.022 |
| CAATTCAGGA | 1.01 ± 0.036 |
| CAATTGGGTT | 0.985 ± 0.025 |
| CAATTTGTCT | 1.01 ± 0.028 |
| CAATTTGTGC | 1.02 ± 0.1 |

| Sequence | switch fluorescence ratio |
| --- | --- |
| CACAAAATAG | 1.45 ± 0.49 |
| CACAGTTTGC | 1.02 ± 0.026 |
| CACATATTCC | 1.14 ± 0.035 |
| CACATTATTC | 1.04 ± 0.033 |
| CACATTTAGG | 0.978 ± 0.032 |
| CACATTTGGA | 0.985 ± 0.051 |
| CACCAATAGC | 1.31 ± 0.059 |
| CACCACGTGG | 1.01 ± 0.018 |
| CACCAGTCAA | 1.56 ± 0.33 |
| CACCATTAGT | 0.9802 ± 0.0079 |
| CACCCTGGTG | 4.51 ± 0.57 |
| CACCGACTTT | 1.06 ± 0.0014 |
| CACCGTGGTC | 1.14 ± 0.023 |
| CACCGTTTTC | 1.1 ± 0.028 |
| CACCTACATG | 1.21 ± 0.031 |
| CACCTCAGAT | 1.05 ± 0.023 |
| CACCTTACTT | 1.26 ± 0.062 |
| CACGCATTTT | 1.12 ± 0.089 |
| CACGGAAGCA | 1.07 ± 0.019 |
| CACGGAGCAG | 2.52 ± 0.15 |
| CACGGATAAA | 1.04 ± 0.022 |
| CACGGATGGT | 1.01 ± 0.069 |
| CACGGCAAGA | 1.89 ± 0.087 |
| CACGGCCCAA | 0.9224 ± 0.0023 |
| CACGGGGTTT | 0.954 ± 0.011 |

| Sequence | switch fluorescence ratio |
| --- | --- |
| CACGGTATTT | 1.19 ± 0.067 |
| CACGTCTGAA | 0.996 ± 0.047 |
| CACGTTCAGC | 1.04 ± 0.035 |
| CACGTTGCCT | 0.979 ± 0.052 |
| CACGTTGTTT | 0.9963 ± 0.0019 |
| CACGTTTCCT | 1.1 ± 0.067 |
| CACTAACCAT | 1.09 ± 0.069 |
| CACTAAGTGG | 1.025 ± 0.0023 |
| CACTCTCAGC | 1.04 ± 0.012 |
| CACTCTGTGT | 1.02 ± 0.026 |
| CACTGACTTA | 1.19 ± 0.032 |
| CACTGCTCCT | 1.09 ± 0.013 |
| CACTGGGGAT | 0.981 ± 0.046 |
| CACTGGGGTG | 1.04 ± 0.038 |
| CACTGTAACC | 1.19 ± 0.072 |
| CACTGTGAAT | 1.009 ± 0.0024 |
| CACTTTTTTA | 0.962 ± 0.039 |
| CAGAAATTAG | 1.005 ± 0.0024 |
| CAGAACTCTT | 0.963 ± 0.034 |
| CAGAAGCCTG | 1.014 ± 0.0028 |
| CAGAAGGGAG | 0.98 ± 0.01 |
| CAGAAGGGCG | 1 ± 0.036 |
| CAGAAGTTTG | 1 ± 0.034 |
| CAGAATGCGG | 0.991 ± 0.023 |
| CAGAATGTGG | 0.996 ± 0.068 |
